Assay results taken from PMC2853123.
Read-outs that look alike come from different tables or passages of the source.

Columns and labels:
Assay in all cases: EMSA
[1] = molecular target: T1, MBNL1 (GST-MBNL1 1-260) (UniProt Q9NR56 1-260)
T1 sequence: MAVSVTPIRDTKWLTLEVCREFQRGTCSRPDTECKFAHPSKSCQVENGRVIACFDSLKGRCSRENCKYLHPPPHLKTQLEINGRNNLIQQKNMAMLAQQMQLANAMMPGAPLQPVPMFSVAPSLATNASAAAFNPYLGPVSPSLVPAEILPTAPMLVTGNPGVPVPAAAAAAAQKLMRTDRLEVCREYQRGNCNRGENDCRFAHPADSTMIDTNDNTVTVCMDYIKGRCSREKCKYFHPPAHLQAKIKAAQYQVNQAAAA

[2] = molecular target: T1, MBNL1 (GST-MBNL1 1-260); remark: listed apart in the source
[3] = molecular target: T1, MBNL1 (GST-MBNL1 1-260); remark: listed apart in the source
[4] = molecular target: T1, MBNL1 (GST-MBNL1 1-260); remark: listed apart in the source
[5] = molecular target: T1, MBNL1 (GST-MBNL1 1-260); remark: listed apart in the source

B1: H01 CA1-2 (ssRNA)
RNA: GGGAAUGGAUCCACAUCUACGAAUUCCCUCAUUUCAUAUUGCGCUGCAAUUCCUGUUCAAGACUCGAUACGUGACGAACCU
- binding signal [1]: 12 fold lower affinity than H01

Binder: CCUGCUUCGCUUCUGCAUUGUUCGGCCGGUUG (ssRNA) [A04 32mer]
- Kd [2]: 180 nM

Binder: CCUUUAUUGUGCAUGCUUAGUCUUGUUAUUCGUUGUAUAU (ssRNA) [MBNL1 site #2]
- Kd [2]: 45 nM

B2: F06 UCCA 81mer (ssRNA)
RNA: GGGAAUGGAUCCACAUCUACGAAUUCCCGAUCCUCCAUAUGCCAUCCGCUGCAGUCACAAGACUCGAUACGUGACGAACCU
- binding signal [3]: 140 fold lower affinity than F06

Binder: UGCCACUGCUGCUGCUGCGCUUCCAGUCAGGGUGGGCCGC (ssRNA) [ATP2A1]
- Kd [2]: 15 nM

Binder: CUGCUUCUGCUUCUGCUUCUGCUUCUGCUUCUGCUU (ssRNA) [(CUGCUU)6 (SELEX motif 1)]
- binding result [4]: binds

Binder: UGUUCCUCGCUUUUCGCCUCCGCUUCCGCCGC (ssRNA) [B07 32mer]
- Kd [2]: 0.66 nM

Binder: GCGGCGGGCAGCUGUGCUGGAGAGCAGAUGCUUCACCAAU (ssRNA) [INSR]
- Kd [2]: 120 nM

B3: TNNT2 81mer template (ssRNA)
RNA: GGGAAUGGAUCCACAUCUACGAAUUCCCUGUCUCGCUUUUCCCCUCCGCUGCGGCCACAAGACUCGAUACGUGACGAACCU
- Kd [2]: 30 nM

Binder: GCCGAGGAGGUGGUGUGAUUGCUUUAGCGCCGUCAUUUUC (ssRNA) [GRIN1]
- Kd [2]: 280 nM

Binder: CCUGUCUCGCUUUUCCCCUCCGCUGCGGCCAC (ssRNA) [TNNT2 32mer]
- Kd [2]: 20 nM

Binder: CCGAUCCCGCUUAUGCCAUCCGCUGCAGUCAC (ssRNA) [F06 32mer]
- binding result [5]: binds
